T1: Tec(h)activated (human, UniProt P42680 1-631, limits assumed)
T1 sequence (looked up): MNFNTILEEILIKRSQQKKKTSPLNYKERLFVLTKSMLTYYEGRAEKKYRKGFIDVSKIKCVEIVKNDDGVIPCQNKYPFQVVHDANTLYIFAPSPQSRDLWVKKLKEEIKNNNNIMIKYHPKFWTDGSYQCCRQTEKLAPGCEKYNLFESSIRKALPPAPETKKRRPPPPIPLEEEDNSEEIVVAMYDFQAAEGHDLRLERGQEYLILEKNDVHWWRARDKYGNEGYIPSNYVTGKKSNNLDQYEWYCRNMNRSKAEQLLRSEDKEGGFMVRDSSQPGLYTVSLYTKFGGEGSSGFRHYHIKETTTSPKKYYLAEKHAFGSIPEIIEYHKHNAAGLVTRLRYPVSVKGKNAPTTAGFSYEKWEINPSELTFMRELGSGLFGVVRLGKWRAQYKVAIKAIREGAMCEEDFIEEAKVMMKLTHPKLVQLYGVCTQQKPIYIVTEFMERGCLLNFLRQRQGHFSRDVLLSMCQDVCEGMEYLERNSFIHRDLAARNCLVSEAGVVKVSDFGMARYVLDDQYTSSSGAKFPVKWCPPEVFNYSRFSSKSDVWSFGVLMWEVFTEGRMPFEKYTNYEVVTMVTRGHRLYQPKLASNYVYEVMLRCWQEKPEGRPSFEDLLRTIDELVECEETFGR

T2: EphB2(h) (human, UniProt P29323 565-986, limits assumed)
T2 sequence (looked up): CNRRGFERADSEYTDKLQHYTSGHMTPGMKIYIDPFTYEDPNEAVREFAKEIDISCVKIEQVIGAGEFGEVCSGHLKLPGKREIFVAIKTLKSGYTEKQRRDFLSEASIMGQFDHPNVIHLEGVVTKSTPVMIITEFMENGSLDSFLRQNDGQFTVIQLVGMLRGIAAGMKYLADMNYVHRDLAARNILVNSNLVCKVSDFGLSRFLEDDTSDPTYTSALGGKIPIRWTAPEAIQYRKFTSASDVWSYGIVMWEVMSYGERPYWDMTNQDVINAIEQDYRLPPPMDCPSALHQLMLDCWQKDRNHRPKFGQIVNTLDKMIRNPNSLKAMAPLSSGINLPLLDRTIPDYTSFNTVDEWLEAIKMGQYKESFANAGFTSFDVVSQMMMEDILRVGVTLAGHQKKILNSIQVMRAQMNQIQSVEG

T3: EphA3(h) (human, UniProt P29320 566-983, limits assumed)
T3 sequence (looked up): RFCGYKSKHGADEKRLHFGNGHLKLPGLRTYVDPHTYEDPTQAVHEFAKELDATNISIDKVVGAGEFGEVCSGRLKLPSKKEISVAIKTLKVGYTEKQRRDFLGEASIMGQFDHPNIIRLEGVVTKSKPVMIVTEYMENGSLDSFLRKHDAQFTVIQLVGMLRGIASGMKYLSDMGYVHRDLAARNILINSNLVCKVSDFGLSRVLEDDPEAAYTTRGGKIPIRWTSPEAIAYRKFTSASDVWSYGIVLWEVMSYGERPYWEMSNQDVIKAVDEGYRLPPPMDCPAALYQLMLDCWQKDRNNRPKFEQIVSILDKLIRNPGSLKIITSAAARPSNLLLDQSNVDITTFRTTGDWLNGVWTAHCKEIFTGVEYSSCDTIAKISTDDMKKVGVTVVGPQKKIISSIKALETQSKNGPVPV

T4: EphB1(h) (human, UniProt P54762 564-984, limits assumed)
T4 sequence (looked up): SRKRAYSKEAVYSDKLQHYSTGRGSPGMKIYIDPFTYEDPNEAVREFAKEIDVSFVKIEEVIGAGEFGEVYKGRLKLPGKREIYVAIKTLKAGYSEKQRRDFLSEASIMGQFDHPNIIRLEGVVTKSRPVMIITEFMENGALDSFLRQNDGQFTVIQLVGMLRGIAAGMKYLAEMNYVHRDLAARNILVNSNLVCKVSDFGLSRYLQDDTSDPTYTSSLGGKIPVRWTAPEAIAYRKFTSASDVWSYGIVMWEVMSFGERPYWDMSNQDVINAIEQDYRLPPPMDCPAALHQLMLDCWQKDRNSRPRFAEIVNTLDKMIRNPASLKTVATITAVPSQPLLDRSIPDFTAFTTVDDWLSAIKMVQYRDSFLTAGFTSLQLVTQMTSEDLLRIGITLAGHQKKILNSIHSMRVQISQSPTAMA

T5: MRCKβ(h) (human, UniProt Q9Y5S2 1-473, limits assumed)
T5 sequence (looked up): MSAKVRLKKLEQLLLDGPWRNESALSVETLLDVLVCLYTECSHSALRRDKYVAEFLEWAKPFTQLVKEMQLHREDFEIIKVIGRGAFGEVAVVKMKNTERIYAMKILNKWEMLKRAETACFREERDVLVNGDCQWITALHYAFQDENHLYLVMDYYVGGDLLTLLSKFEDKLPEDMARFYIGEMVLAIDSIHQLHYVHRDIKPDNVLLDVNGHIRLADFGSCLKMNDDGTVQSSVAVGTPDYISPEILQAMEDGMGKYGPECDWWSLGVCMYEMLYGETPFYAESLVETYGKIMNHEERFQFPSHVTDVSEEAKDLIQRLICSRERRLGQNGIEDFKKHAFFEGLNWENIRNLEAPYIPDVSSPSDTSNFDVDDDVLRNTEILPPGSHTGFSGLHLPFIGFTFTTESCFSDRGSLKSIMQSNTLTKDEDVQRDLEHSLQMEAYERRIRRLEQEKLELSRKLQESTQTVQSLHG


Experiments:
Assay in all cases: cell-based or functional assay
Tec(h)activated = biological target: T1, Tec(h)activated
FGFR1(h) = FGFR1(h) (human, UniProt P11362 456-765, limits assumed)
FGFR1(h), sequence (P11362 456-765 limits assumed): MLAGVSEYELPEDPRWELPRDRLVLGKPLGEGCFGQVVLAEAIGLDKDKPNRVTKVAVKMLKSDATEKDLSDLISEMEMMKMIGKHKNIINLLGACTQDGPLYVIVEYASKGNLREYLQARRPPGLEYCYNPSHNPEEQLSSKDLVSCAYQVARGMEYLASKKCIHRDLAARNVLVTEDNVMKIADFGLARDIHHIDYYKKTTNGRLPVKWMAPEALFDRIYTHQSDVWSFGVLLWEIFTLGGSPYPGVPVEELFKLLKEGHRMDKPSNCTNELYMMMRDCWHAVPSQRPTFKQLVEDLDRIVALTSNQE

PKBγ(h) = PKBγ(h) (human, UniProt Q9Y243 1-479, limits assumed)
PKBγ(h), sequence (Q9Y243 whole entry): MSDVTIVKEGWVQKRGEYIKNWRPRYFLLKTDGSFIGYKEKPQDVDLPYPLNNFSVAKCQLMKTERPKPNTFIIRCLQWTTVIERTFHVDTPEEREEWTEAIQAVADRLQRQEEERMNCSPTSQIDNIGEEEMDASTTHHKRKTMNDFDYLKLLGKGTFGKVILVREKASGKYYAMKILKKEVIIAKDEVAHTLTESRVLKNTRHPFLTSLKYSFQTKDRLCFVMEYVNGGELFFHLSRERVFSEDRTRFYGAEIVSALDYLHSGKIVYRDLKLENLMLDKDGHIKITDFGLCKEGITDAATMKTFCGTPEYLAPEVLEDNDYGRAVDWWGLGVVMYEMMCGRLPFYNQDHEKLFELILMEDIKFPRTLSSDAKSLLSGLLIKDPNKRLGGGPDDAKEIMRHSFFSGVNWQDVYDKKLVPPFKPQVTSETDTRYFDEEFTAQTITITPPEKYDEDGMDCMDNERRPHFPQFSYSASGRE

Ab1(T315I)(h) = Ab1(T315I)(h) (human, UniProt P00519 27-1130, limits assumed)
Ab1(T315I)(h), sequence (P00519 27-1130 T315I limits assumed): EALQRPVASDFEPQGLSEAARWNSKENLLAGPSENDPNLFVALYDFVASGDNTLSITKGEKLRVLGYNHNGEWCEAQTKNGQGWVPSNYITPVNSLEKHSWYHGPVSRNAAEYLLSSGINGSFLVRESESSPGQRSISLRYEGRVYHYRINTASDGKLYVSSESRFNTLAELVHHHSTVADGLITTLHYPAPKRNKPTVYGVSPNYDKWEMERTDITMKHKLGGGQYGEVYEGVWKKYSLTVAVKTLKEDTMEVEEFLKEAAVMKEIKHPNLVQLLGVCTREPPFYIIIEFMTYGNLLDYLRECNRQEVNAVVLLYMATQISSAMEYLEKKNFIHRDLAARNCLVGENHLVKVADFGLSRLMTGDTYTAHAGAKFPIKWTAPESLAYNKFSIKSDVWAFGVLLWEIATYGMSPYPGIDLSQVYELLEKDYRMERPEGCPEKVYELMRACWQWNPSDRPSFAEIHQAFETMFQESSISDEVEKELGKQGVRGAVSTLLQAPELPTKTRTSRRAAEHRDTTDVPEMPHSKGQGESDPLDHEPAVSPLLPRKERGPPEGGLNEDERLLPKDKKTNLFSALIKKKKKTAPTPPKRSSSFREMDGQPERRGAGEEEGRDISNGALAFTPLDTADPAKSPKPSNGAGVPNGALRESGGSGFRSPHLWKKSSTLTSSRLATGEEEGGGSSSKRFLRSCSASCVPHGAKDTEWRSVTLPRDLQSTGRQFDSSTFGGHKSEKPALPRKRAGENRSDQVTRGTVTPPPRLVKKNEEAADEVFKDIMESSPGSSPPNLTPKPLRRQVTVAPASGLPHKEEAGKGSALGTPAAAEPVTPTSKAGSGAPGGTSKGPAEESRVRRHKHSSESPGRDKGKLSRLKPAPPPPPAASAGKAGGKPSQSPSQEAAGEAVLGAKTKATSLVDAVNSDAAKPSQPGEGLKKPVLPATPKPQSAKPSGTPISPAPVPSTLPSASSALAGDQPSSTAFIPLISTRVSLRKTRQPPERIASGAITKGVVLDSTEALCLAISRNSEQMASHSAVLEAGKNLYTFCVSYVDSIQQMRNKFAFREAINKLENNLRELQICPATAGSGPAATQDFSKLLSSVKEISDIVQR

EphB2(h) = biological target: T2, EphB2(h)
EphA3(h) = biological target: T3, EphA3(h)
PDGFRα(V561D)(h) = PDGFRα(V561D)(h) (human, UniProt P16234 550-1089, limits assumed)
PDGFRα(V561D)(h), sequence (P16234 550-1089 V561D limits assumed): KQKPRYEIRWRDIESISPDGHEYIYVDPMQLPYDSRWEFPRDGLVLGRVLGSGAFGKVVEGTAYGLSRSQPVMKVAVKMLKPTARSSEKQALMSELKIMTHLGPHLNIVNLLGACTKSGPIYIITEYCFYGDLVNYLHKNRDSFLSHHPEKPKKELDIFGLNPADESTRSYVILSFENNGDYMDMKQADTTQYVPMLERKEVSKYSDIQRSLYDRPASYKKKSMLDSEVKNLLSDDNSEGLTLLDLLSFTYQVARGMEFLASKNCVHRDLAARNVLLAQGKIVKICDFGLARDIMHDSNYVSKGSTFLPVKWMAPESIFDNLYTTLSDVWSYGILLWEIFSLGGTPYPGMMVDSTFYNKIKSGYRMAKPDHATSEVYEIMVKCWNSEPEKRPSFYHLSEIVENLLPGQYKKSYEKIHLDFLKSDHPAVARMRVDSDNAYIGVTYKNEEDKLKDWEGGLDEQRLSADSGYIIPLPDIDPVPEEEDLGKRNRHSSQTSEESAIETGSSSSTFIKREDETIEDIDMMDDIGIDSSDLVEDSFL

EphB1(h) = biological target: T4, EphB1(h)
MAPKAP-K2(h) = MAPKAP-K2(h) (human, UniProt P49137 46-400)
MAPKAP-K2(h), sequence (P49137 46-400 limits assumed): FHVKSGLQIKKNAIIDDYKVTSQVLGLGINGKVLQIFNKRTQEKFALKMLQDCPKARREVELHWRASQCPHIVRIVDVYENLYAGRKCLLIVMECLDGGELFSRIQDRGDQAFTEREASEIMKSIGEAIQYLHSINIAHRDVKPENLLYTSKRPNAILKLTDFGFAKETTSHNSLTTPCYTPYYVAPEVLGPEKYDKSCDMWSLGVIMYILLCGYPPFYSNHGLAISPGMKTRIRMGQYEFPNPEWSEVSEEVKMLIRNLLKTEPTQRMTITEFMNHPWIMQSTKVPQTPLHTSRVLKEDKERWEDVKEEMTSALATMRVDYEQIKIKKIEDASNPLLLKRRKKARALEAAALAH

MLK1(h) = MLK1(h) (human, UniProt P80192 132-413, limits assumed)
MLK1(h), sequence (P80192 132-413 limits assumed): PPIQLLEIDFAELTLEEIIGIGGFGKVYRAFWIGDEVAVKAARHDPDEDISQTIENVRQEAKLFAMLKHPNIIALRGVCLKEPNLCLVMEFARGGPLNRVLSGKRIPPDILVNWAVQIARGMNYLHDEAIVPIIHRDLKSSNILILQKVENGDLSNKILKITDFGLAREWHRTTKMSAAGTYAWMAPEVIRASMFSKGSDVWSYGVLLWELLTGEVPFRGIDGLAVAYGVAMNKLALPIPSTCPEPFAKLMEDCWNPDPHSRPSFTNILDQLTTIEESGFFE

MRCKβ(h) = biological target: T5, MRCKβ(h)
PKBα(h) = PKBα(h) (human, UniProt P31749 1-480, limits assumed)
PKBα(h), sequence (P31749 whole entry): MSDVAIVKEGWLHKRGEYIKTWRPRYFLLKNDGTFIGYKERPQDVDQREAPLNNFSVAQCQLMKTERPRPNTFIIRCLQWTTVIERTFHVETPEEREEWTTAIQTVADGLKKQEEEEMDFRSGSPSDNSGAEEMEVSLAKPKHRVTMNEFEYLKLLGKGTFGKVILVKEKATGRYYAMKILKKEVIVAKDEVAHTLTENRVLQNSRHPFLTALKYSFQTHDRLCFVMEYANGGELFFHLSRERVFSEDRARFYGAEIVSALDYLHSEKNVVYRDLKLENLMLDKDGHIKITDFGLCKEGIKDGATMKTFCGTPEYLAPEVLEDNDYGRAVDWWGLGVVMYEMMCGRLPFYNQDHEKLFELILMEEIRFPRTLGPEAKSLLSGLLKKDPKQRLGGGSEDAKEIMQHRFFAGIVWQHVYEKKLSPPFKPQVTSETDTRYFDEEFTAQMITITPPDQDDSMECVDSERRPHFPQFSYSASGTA
Also: test concentration or dose not given here.

% activity (Tec(h)activated) [%] | % activity (FGFR1(h)) [%] | % activity (PKBγ(h)) [%] | % activity (Ab1(T315I)(h)) [%] | % activity (EphB2(h)) [%] | % activity (EphA3(h)) [%] | % activity (PDGFRα(V561D)(h)) [%] | % activity (EphB1(h)) [%] | % activity (MAPKAP-K2(h)) [%] | % activity (MLK1(h)) [%] | % activity (MRCKβ(h)) [%] | % activity (PKBα(h)) [%] | Binder
56 | 55 | 20 | 97 | 18 | 6 | 82 | 44 | 5 | 40 | 83 | 57 | FAKLAARLYRKALARQLGVAA [MMI-0300]
29 | 59 | 41 | 105 | 22 | 12 | 100 | 58 | 5 | 33 | 71 | 67 | KAFAKLAARLYRKALARQLGVAA [MMI-0400]

— patent US20160200782A1 (MOERAE MATRIX, published 2016)
